Consider two molecules from article PMC3031960 (Journal of immunology (Baltimore, Md. : 1950), 2010).

Numbered stars: 1 amine (or outer) side, 2 acyl side, 3 side chain; on linkers, the order of the positions; unused ones are H or OH. Square brackets hold non-standard residues; d marks the D form. Ends that are not written are not given here. K(Palm) = CCCCCCCCCCCCCCCC(=O)NCCCC[C@H](N[*:1])C(=O)[*:2]; pY = N[C@@H](Cc1ccc(OP(=O)(O)O)cc1)C(=O)O

In the assay the target is T1, pJAK2(1001–1013).
T1 peptide: {K(Palm)}-LPQDKE[pY]YKVKEP
In words: ELISA. A general note: In an ELISA, binding on a coated surface is turned into a signal by an enzyme label.

On to {K(Palm)}-LRLKTFSSKSEYQLVV [SOCS3-KIR], for which the binding result is “binds”. For {K(Palm)}-DTHFRTFRSHSDYRRI [SOCS1-KIR], the binding result was “binds”.
